Values quoted from earlier work as cited in article PMC5326574.

Tests used:
ERK2 (Homo sapiens) = ERK2 (Homo sapiens) (UniProt P28482); assay: NMR
[1] = target: Prolactin (second site) (Homo sapiens) (UniProt P01236)
Prolactin (Homo sapiens) = Prolactin (Homo sapiens) (UniProt P01236); assay: SPR

UniProt P28482, sequence (P28482 2-360): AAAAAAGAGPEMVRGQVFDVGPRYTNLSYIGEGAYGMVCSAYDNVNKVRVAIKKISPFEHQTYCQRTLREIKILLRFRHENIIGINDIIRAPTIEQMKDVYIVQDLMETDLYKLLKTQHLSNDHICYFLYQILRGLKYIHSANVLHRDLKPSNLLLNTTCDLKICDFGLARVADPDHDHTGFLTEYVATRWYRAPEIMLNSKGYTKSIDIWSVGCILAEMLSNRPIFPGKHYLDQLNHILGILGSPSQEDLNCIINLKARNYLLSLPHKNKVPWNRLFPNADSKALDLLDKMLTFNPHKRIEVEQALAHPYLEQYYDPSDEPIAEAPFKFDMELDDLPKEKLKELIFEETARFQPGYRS

Substance	Kd (ERK2 (Homo sapiens))	Kd [1]	Kd (Prolactin (Homo sapiens))
NHE1 C-terminal distal tail (NHE1cdt) (from UniProt P19634)	30 µM		
Prolactin receptor ECD (from UniProt P16471)		33 µM	0.006 µM
